According to the DeepSol protein solubility set:

Experiment: soluble on expression in E. coli; label from the status in PepcDB or PDB records

Sequence	soluble on expression in E. coli
MGSDKIHHHHHHMSIICLALAGCAVEKTEVRTPTFDEQLRPAPPSYANGSIWQASTTGLAVDHKARSRGDIITVLIVEQASASKEATTDTERKAEVSASVPYLMGLEKSSTLFSKLTNANPNNLLGASTNSKYEGSGATTRKENLLATMTAKITDVLPNGNFLIEGRRNVKVNNEDQILVLQGTIRPRDVSPDNTISSTMIADARISYTGNGVISDRQRPGWLMNILDYIWPF	not soluble
VVVGAERTELLLPLLRDKRVALVANATSVVGTEREHLLDNLLRQGVNVVKILGPEHGFRGDADAGATVKDERDVRTGIPIVSLYGKNKKPTPRMLADVDVLLFDMQDVGTRFFTYISTLHYVMEACAEEQKKLIVTDRPNPNDYVDGPILQDDCRSFVGVDPLPILHGLTIGELANMINGEGWLGKKEMKCDLTVVPMSGWKHGQEYALPVKPSPNLPTANAIAWYPSLCLFEATIMSVGRGTDFPFEVLGYPKKVFGSFVFVPRPIRGMDSNPLYKGRHCYGVDLRGEKAPRGLSLQLLIRYYQTARREGIKFVNRKQMFNLLAGTKELAQQIEKGRTEEQIRASWQSDLDKYHKLRKKYLLYPTPTE	soluble
DCMFGNGKGYRGKRVTTVTGTPCQDWAAQEPHRHSIFTPETNPRAGLEKNYCRNPDGDVGGPWCYTTNPRKLYDYCDVPQCAAP	soluble
MSLSGKLTYKELIIEVLKQTKKPLNVSEIWQKALEKGLDKKLSSIGQTPTQTIWNRLLTDKINFLKTSIKPTTFWLKERENELLKLDNKNEITNEKQEKNKFHERDLHPLLVKFLYENLDFNLNCKTIYHEQSKKGKGGEDKWNYPDIVGVYFPYDDYEKETITLLENIKQNSYKLFSFELKIALNFSNLKECYFQAVSNSSWANEGYLVVLQEIDSEVLSELRRLNQSFGIGVIKLEKDISNSQILISAKEKELDIQTLNMLINKNPNFKEFIDDINKQIKVGKEAKIQANFDEIKSDEEMEKYLKEKCILEKEGHHHHHH	soluble
MTLTASSSSRAVTNSPVVVALDYHNRDDALAFVDKIDPRDCRLKVGKEMFTLFGPQFVRELQQRGFDIFLDLKFHDIPNTAAHAVAAAADLGVWMVNVHASGGARMMTAAREALVPFGKDAPLLIAVTVLTSMEASDLVDLGMTLSPADYAERLAALTQKCGLDGVVCSAQEAVRFKQVFGQEFKLVTPGIRPQGSEAGDQRRIMTPEQALSAGVDYMVIGRPVTQSVDPAQTLKAINASLQRSA	soluble
MVVKEKVVNEMQEVKEMIDTLVNNGRKALQALESFTQEQIDNIVHEMALAGVDQHMPLAKLAVEETGRGVYEDKCIKNIFATEYIWHSIKKDKTVGIIHEDPHEEIIEIAEPVGVVAGVTPVTNPTSTTMFKALIAIKTRNPIIFAFHPSAQNCSVAAAKTVYDAAVKAGAPKHCIQWIEKPSVEATKQLMNHEGVALVLATGGAGMVKSAYSTGKPALGVGPGNVPCYIEKSAHIKRAVNDLILSKTFDNGMICASEQAIIVDKEIYDDVKTEMITNDCYFVTEEERRKLEKLVINENTCAVNSDIVGKSAQYIAELVGITVPKNTKMLVAEIQGIGAAYPLSREKLSPVLACVKANSLEEGFTYCEEMLNLGGLGHSAVIHSVNKEVQKQFGLRMKACRLIVNAPSSQGGIGDIYNGFIPSLTLGCGSYGKNSVSQNVTATHLLNIKRLANRKKNMQWFKLPPKIYFEKHATAYLANMPNISRAFIVTDPGMVEHGYVDTVAHYLRKHANDVKVEVFFEVEPDPSDETVFKGAEMMRSFQPDVIIALGGGSAMDAAKGMWLFYEYPETTFYGIKQKFLDIRKRTCKYPELGSKAQFVAIPTTSGTGSEVTPFAVITDKKNNIKYPLADYELTPDVAIVDPQFVMTVPPHVTADTGMDVLTHAIEAYVSVLANDYTDGLALKAIDLVFKYLPRAFKDGHDEEAREKMHNASAIAGMAFANAFLGINHSLAHKIGPEFHIPHGRANAILMPHVIRYNAIKPRKHALFPKYEHFVADERYAHIARMLGLPASSVAEGVESLDKAIIDLGKSLNINMSIAGQGVAKDQFEEVVGLLAERAFEDQCTTANPKLPLISELKEIYMKAYKGE	not soluble
MSLSHTLKSKTLQELDIEEIKETNPLLKLVQGQRIVQVPELVLESGVVINNFPIAYKTWGTLNEAGDNVLVICHALTGSADVADWWGPLLGNDLAFDPSRFFIICLNSMGSPYGSFSPLTINEETGVRYGPEFPLCTVRDDVRAHRIVLDSLGVKSIACVIGGSMGGMLSLEWAAMYGKEYVKNMVALATSARHSAWCISWSEAQRQSIYSDPNYLDGYYPVEEQPVAGLSAARMSALLTYRTRNSFENKFSRRSPSIAQQQKAQREETRKPSTVSEHSLQIHNDGYKTKASTAIAGISGQKGQSVVSTASSSDSLNSSTSMTSVSSVTGEVKDIKPAQTYFSAQSYLRYQGTKFINRFDANCYIAITRKLDTHDLARDRVDDITEVLSTIQQPSLIIGIQSDGLFTYSEQEFLAEHIPKSQLEKIESPEGHDAFLLEFKLINKLIVQFLKTNCKAITDAAPRAWGGDVGNDETKTSVFGEAEEVTNWEGHHHHHH	soluble
MGSDKIHHHHHHVVNQAQKMNFLTHLHLADISKTHLAANVAGNYIQAPIAQAPVEFRQALWLNQEINTLCASHELTIELMEAFPAPLRSIAAELMAVSFDYYLAYYWEEYHHQPLNEFSHKAYDALENFAAQGIDQYHPEALIKLLPTIRSQDWLGSYATENGLQQALAQVAKPHPQAALFKDAHKVVNKMQIEIETTFRTFYPQLMAYSRIWSRKTPAEYLP	not soluble
MAHHHHHHMQRNEVESLEGLVLLVQLRVLVAHHNAVTSLRPIAVLPALSFIDARSNKIEDVNPMEDLPCDSLKYLALLDNPCCNGDRSVDREQIMKACPKLAMLDDVPRDPSAEKVTGSEEEENSDEEDGCKRWHAVSETPTGCSKGVSSRIHLYRSLKMCEPLPVSVPSLEPIPVTSQDIDTNRVTTTTDRLCEQLRHRSSAIRRMAGHHALGQTEVSDPVWDFGNHVENDGDSEHRSNGRRRLDSPESTLSLTLPPELEQERATKARLYDDIRFALQADDRRLRQLAGVVWDDVDKVLSTRQALVGHRRHRMHTAHQQPSDAYAKSLEILKHENRVANLDKYRKQENANAPQ	not soluble
MGSDKIHHHHHHMLYQLHEFQRSMLHPLTAWAQATAKTFTNPLSPLSLVPGAPRLAAGYELLYRLGKEYEKPAFDIKSVRSNGREIPIVEQTIMEKPFCRLVRFKRYADDPDTIKLLKDEPVVLVAAPLSGHHATLLRDTVRTLLQDHKVYVTDWVDARMVPAEHGPFHLSDYIYYIQEFIRHIGADKLHVISVCQPTVPVLAAISLMASAGEKTPLTMTMMGGPIDARKSPTAVNSLATNKSFEWFENNVIYTVPANYPGHGRRVYPGFLQHAGFVAMNPDRHLSSHYDYYLSLIQGDADDAEAHVRFYDEYNAVLDMAAEYYLDTIREVFQEFRLANGTWTIDGNPVRPQDIKGTALLTVEGELDDISGAGQTSAAHDLCAGIPQTHKHHLSAAKCGHYGIFSGRRWRDEIYPQLRDFIRKYR	not soluble
MGQAGKQVAPVKCKGWAVEKPALKWSTDAVRLSDVTVPAPDPTQIRVRVYAASINPVDWKRVMFPASGSGPGVAGSALKGFKGMHHKPPNYPYPYVVGVDGAGEVESVGRKVTGLKAGDRVMFHSSLTNAHGGSLCEYAVMEESVAVPIPADGARPFSYEEAAAIPCATWTAYVALFDKLRIEPGRSIFVDGASGAVGSCAVQLAHHMGLYVFASCSPSNADYVRSIGADQVLNYHDGIEMVDQILDATEGYGVDYYLAVTNTQDAESFTDALRFGGAVCLLSGVLIPNSNVLFRRQLSVHYVFLNGLHGHPLTRPQLRYIGDQVAKLYQSGAFRLD	not soluble
MGSDKIHHHHHHENLYFQGMIESIQELLQKEAQAVLNIPVTDAYEKAVELIVEQIHRKKGKLVTSGMGKAGQIAMNIATTFCSTGIPSVFLHPSEAQHGDLGILQENDLLLLISNSGKTREIVELTQLAHNLNPGLKFIVITGNPDSPLASESDVCLSTGHPAEVCTLGMTPTTSTTVMTVIGDILVVQTMKRTEFTIEEYSKRHHGGYLGEKSRKLCVK	soluble
MAKVYGSLIDNETRCTHYYSSLDVIAIKFKCCNKYYPCYKCHNEHVSHTIERWAENEFDEKAIMCGVCKHEMRIRDYMMVEMCPRCKAHFNSRCKFHYHLYFEVLEHHHHHH	not soluble
